The text below walks through data of publication PMC5395669.

For experiment [1], the target named is DnaK (added to the in vitro Co-IP reactions) (UniProt P0A6Y8). Description: Co-IP (amylose magnetic beads, Western blot with α-DnaK). Conditions: 1 µM RctB, 1 µM DnaJ, 2 µM DnaK, 100 µM ATP, buffer A pH 7.4, 4°C.
Experiment [2] deals with MBP-RctB S313P (Vibrio cholerae). Description: AUC.
For experiment [3], the target named is MBP-tagged RctB (wild type) (Vibrio cholerae (N16961 DNA as template)). Description: AUC.
The target of experiment [4] is MBP-RctB F311P (Vibrio cholerae). The experiment in a line: AUC.
Experiment [5] concerns the target RctB145–470 tryptic fragment (Vibrio cholerae). Description: AUC; sedimentation velocity, 50,000 rpm, 20°C; 20 mM Tris pH 8.0, 300 mM NaCl, 1 mM TCEP, 1 mM EDTA, 5 mM MgCl2; multiple concentrations (Fig. S4A).
Experiment [6] concerns the target MBP-RctB F316P (Vibrio cholerae). The experiment in a line: AUC.
The target of experiment [7] is MBP-RctB K312P (Vibrio cholerae). The experiment in a line: AUC.

On to “MBP-tagged RctB (wild type) S143A; K144A; L146A; Q148A; T149A”, for which, in experiment [1], the ratio to parent worked out at 0.8.
Take MBP-RctB S313P (natural protein): the stoichiometry N in experiment [2] turned out to be 2.
The substance “MBP-tagged RctB (wild type) (natural protein)” returned a stoichiometry N in experiment [3] of 2.
Take “MBP-tagged RctB (wild type) P164A; P165A; M167A; K168A; D169A; E170A”: the ratio to parent in experiment [1] was determined as 0.6.
Substance MBP-RctB F311P (natural protein) came in with a stoichiometry N in experiment [4] of 2.
The substance “RctB145–470 tryptic fragment (domain or fragment)” had a stoichiometry N in experiment [5] of 2.
“MBP-tagged RctB (wild type) L129A; V130A; T131A; E132A; S133A; V134A; K135A”: in experiment [1], the ratio to parent came to 0.9.
The substance MBP-RctB F316P (natural protein) yielded a stoichiometry N in experiment [6] of 2.
Regarding “MBP-tagged RctB (wild type) Q150A; V151A; N152A; Q153A; R154A; L155A; L156A”, the ratio to parent in experiment [1] was found to be 0.4.
In the case of MBP-RctB K312P (natural protein), in experiment [7], the stoichiometry N was found to be 2.
As to “MBP-tagged RctB (wild type) Q136A; N137A; E138A; K139A; Q140A; K141A; R142A”, the ratio to parent in experiment [1] was 0.8.
The same measure, in the same setting: the value for “MBP-tagged RctB (wild type) H157A; E158A; H159A; G160A; L161A; N162A; T163A” was 0.3.
